{"source": "patent US20250043302A1", "about": "“MUTATED HYDROXYPHENYLPYRUVATE DIOXYGENASE POLYPEPTIDE, AND CODING GENE AND USE THEREOF” (BEIJING DABEINONG BIOTECHNOLOGY CO., LTD., priority 2021, published 2025)", "format_in_all_cases": "in vivo", "key": {"[1]": {"system": "Arabidopsis thaliana T1 plants", "experiment": "Topramezone tolerance of transgenic Arabidopsis thaliana T1 plants (spray, bleached leaf area grade, damage score)", "conditions": "Table 10; for Classification and statistics of the grade of pesticide damage Grade 0: number of plants at grade 0; for Classification and statistics of the grade of pesticide damage Grade 1: number of plants at grade 1; for Classification and statistics of the grade of pesticide damage Grade 2: number of plants at grade 2; for Classification and statistics of the grade of pesticide damage Grade 3: number of plants at grade 3; for Scores: pesticide damage score", "in_short": "(§1)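 Damage was assessed by bleaching grade (0 none; 1 <50%; 2 >50%; 3 100% of leaf area) one week after spraying. Sprays on 18-day-old T1 and wild-type plants used field-rate multiples: topramezone 25–200, isoxaflutole 35–280, mesotrione 52.5–420 g ai/ha.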"}, "[2]": {"system": "Arabidopsis thaliana T1 plants", "experiment": "Isoxaflutole tolerance of transgenic Arabidopsis thaliana T1 plants (spray, bleached leaf area grade, damage score)", "conditions": "Table 11; for Classification and statistics of the grade of pesticide damage Grade 0: number of plants at grade 0; for Classification and statistics of the grade of pesticide damage Grade 1: number of plants at grade 1; for Classification and statistics of the grade of pesticide damage Grade 2: number of plants at grade 2; for Classification and statistics of the grade of pesticide damage Grade 3: number of plants at grade 3; for Scores: pesticide damage score", "in_short": "as §1"}, "[3]": {"system": "Arabidopsis thaliana T1 plants", "experiment": "Mesotrione tolerance of transgenic Arabidopsis thaliana T1 plants (spray, bleached leaf area grade, damage score)", "parameters": "Scores: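 damage score 0-100 computed as Σ(N×S)/(T×M)×100 over grades 0-3 with higher meaning more damage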", "conditions": "Table 12; for Classification and statistics of the grade of pesticide damage Grade 0: number of plants at grade 0; for Classification and statistics of the grade of pesticide damage Grade 1: number of plants at grade 1; for Classification and statistics of the grade of pesticide damage Grade 2: number of plants at grade 2; for Classification and statistics of the grade of pesticide damage Grade 3: number of plants at grade 3; for Scores: pesticide damage score", "in_short": "as §1"}}}
{"molecule": "HPPDm-5-02: nucleotide sequence encoding Avena sativa HPPD with A111T+K351N+F372A+F383W; vector DBN11786 (nucleic acid, HPPDm-5-02 Nucleotide Sequence, vector DBN11786) DNA: ATGCCACCTACTCCAGCTACAGCTACTGGTGCTGCTGCTGCTGCCGTTACTCCTGAGCACGCTGCCAGGTCATTCCCCAGGGTGGTTCGCGTGAACCCCAGATCTGATAGGTTCCCAGTTCTGAGCTTCCACCATGTTGAGCTGTGGTGCGCTGATGCTGCTTCTGCTGCTGGCAGGTTCTCTTTCGCTCTTGGTGCTCCACTCGCTGCTAGATCTGATCTGTCTACAGGAAATAGCGCTCATGCCTCACTCCTGCTTCGCTCAGGTGCTTTGGCCTTCCTCTTCACCGCTCCATATGCTCCCCCACCTCAGGAGGCTGCTACTGCTGCTACTACAGCCTCCATTCCAAGCTTCTCAGCTGATGCCGCTAGAACCTTCGCTGCTGCTCATGGACTTGCCGTGAGGTCTGTTGGTGTTCGCGTGGCTGATGCTGCTGAGGCTTTCAGAGTTTCCGTTGCCGGCGGAGCTAGGCCAGCTTTCGCTCCTGCTGATTTGGGACATGGTTTCGGCCTGGCTGAGGTTGAGCTTTACGGTGACGTGGTTCTCCGCTTCGTGTCTTACCCAGATGAGACTGACCTGCCTTTCCTTCCCGGCTTCGAGAGAGTTTCCTCTCCTGGTGCCGTGGATTACGGCCTGACAAGGTTCGACCACGTGGTTGGAAACGTTCCCGAGATGGCTCCAGTGATCGATTACATGAAGGGCTTCCTTGGATTCCATGAGTTCGCCGAGTTCACTGCTGAGGACGTGGGAACCACTGAGTCCGGTTTGAACTCTGTGGTTCTCGCCAACAATTCTGAGGCTGTTTTGCTCCCTCTGAATGAGCCTGTGCATGGAACCAAGAGGAGAAGCCAGATTCAAACTTACCTGGAGTACCACGGTGGCCCTGGAGTTCAGCATATCGCCCTTGCTTCTAATGATGTGTTGCGCACACTCAGAGAGATGCGCGCCAGAACCCCCATGGGAGGTTTCGAGTTCATGGCCCCACCACAGGCTAAGTACTACGAGGGCGTTAGAAGGATTGCTGGAGACGTGTTGAGCGAGGAGCAGATCAATGAGTGCCAAGAGCTGGGTGTTCTTGTGGATAGGGATGACCAGGGCGTTCTGCTTCAAATTGCCACTAAGCCAGTGGGCGACCGCCCTACATTCTGGCTTGAGATGATTCAAAGAATCGGCTGCATGGAGAAGGATGAGGTTGGACAGGAGTACCAAAAGGGCGGATGCGGTGGCTTCGGAAAGGGTAACTTCAGCGAGTTGTTCAAGTCAATCGAGGACTACGAGAAGAGCCTCGAGGTGAAGCAGTCAGTGGTTGCCCAAAAGTCCTGA", "values": [{"measurement": "Resistance evaluation", "setting": "[1]; topramezone 100 g ai/ha (4×)", "result": "Highly resistant"}, {"measurement": "Classification and statistics of the grade of pesticide damage Grade 0", "setting": "[1]; topramezone 100 g ai/ha (4×)", "result": 16}, {"measurement": "Classification and statistics of the grade of pesticide damage Grade 1", "setting": "[1]; topramezone 100 g ai/ha (4×)", "result": 0}, {"measurement": "Classification and statistics of the grade of pesticide damage Grade 2", "setting": "[1]; topramezone 100 g ai/ha (4×)", "result": 0}, {"measurement": "Classification and statistics of the grade of pesticide damage Grade 3", "setting": "[1]; topramezone 100 g ai/ha (4×)", "result": 0}, {"measurement": "Scores", "setting": "[1]; topramezone 100 g ai/ha (4×)", "result": 0}, {"measurement": "Resistance evaluation", "setting": "[1]; topramezone 200 g ai/ha (8×)", "result": "Highly resistant"}, {"measurement": "Classification and statistics of the grade of pesticide damage Grade 0", "setting": "[1]; topramezone 200 g ai/ha (8×)", "result": 16}, {"measurement": "Classification and statistics of the grade of pesticide damage Grade 1", "setting": "[1]; topramezone 200 g ai/ha (8×)", "result": 0}, {"measurement": "Classification and statistics of the grade of pesticide damage Grade 2", "setting": "[1]; topramezone 200 g ai/ha (8×)", "result": 0}, {"measurement": "Classification and statistics of the grade of pesticide damage Grade 3", "setting": "[1]; topramezone 200 g ai/ha (8×)", "result": 0}, {"measurement": "Scores", "setting": "[1]; topramezone 200 g ai/ha (8×)", "result": 0}, {"measurement": "Resistance evaluation", "setting": "[2]; isoxaflutole 140 g ai/ha (2×)", "result": "Highly resistant"}, {"measurement": "Classification and statistics of the grade of pesticide damage Grade 0", "setting": "[2]; isoxaflutole 140 g ai/ha (2×)", "result": 16}, {"measurement": "Classification and statistics of the grade of pesticide damage Grade 1", "setting": "[2]; isoxaflutole 140 g ai/ha (2×)", "result": 0}, {"measurement": "Classification and statistics of the grade of pesticide damage Grade 2", "setting": "[2]; isoxaflutole 140 g ai/ha (2×)", "result": 0}, {"measurement": "Classification and statistics of the grade of pesticide damage Grade 3", "setting": "[2]; isoxaflutole 140 g ai/ha (2×)", "result": 0}, {"measurement": "Scores", "setting": "[2]; isoxaflutole 140 g ai/ha (2×)", "result": 0}, {"measurement": "Resistance evaluation", "setting": "[2]; isoxaflutole 280 g ai/ha (4×)", "result": "Highly resistant"}, {"measurement": "Classification and statistics of the grade of pesticide damage Grade 0", "setting": "[2]; isoxaflutole 280 g ai/ha (4×)", "result": 14}, {"measurement": "Classification and statistics of the grade of pesticide damage Grade 1", "setting": "[2]; isoxaflutole 280 g ai/ha (4×)", "result": 1}, {"measurement": "Classification and statistics of the grade of pesticide damage Grade 2", "setting": "[2]; isoxaflutole 280 g ai/ha (4×)", "result": 1}, {"measurement": "Classification and statistics of the grade of pesticide damage Grade 3", "setting": "[2]; isoxaflutole 280 g ai/ha (4×)", "result": 0}, {"measurement": "Scores", "setting": "[2]; isoxaflutole 280 g ai/ha (4×)", "result": 6}, {"measurement": "Resistance evaluation", "setting": "[3]; mesotrione 210 g ai/ha (2×)", "result": "Highly resistant"}, {"measurement": "Classification and statistics of the grade of pesticide damage Grade 0", "setting": "[3]; mesotrione 210 g ai/ha (2×)", "result": 16}, {"measurement": "Classification and statistics of the grade of pesticide damage Grade 1", "setting": "[3]; mesotrione 210 g ai/ha (2×)", "result": 0}, {"measurement": "Classification and statistics of the grade of pesticide damage Grade 2", "setting": "[3]; mesotrione 210 g ai/ha (2×)", "result": 0}, {"measurement": "Classification and statistics of the grade of pesticide damage Grade 3", "setting": "[3]; mesotrione 210 g ai/ha (2×)", "result": 0}, {"measurement": "Scores", "setting": "[3]; mesotrione 210 g ai/ha (2×)", "result": 0}, {"measurement": "Resistance evaluation", "setting": "[3]; mesotrione 420 g ai/ha (4×)", "result": "Highly resistant"}, {"measurement": "Classification and statistics of the grade of pesticide damage Grade 0", "setting": "[3]; mesotrione 420 g ai/ha (4×)", "result": 16}, {"measurement": "Classification and statistics of the grade of pesticide damage Grade 1", "setting": "[3]; mesotrione 420 g ai/ha (4×)", "result": 0}, {"measurement": "Classification and statistics of the grade of pesticide damage Grade 2", "setting": "[3]; mesotrione 420 g ai/ha (4×)", "result": 0}, {"measurement": "Classification and statistics of the grade of pesticide damage Grade 3", "setting": "[3]; mesotrione 420 g ai/ha (4×)", "result": 0}, {"measurement": "Scores", "setting": "[3]; mesotrione 420 g ai/ha (4×)", "result": 0}]}
